The values that follow come from patent publication US20150267232A1, “IN VIVO AND IN VITRO CARBENE INSERTION AND NITRENE TRANSFER REACTIONS CATALYZED BY HEME ENZYMES” (California Institute of Technology, priority 2012, published 2015).

Experiment [1] can be described thus: Intramolecular carbene C—H insertion, substrate 4.1a. The experiment is classed as biochemical. The method, then: (§1) Yield of product 4.22b was established after calibration with phenethyl alcohol as an internal standard. The reaction is not catalyzed by the WT-BM3 heme domain or hemin at 5% catalyst loading.
A representative procedure for P450-catalyzed C—H insertion is as follows: A vial containing WT-AxD (20 μL, 200 μM) was sealed with a teflon cap and the headspace of this vial was purged with argon for 5 min. Concurrently, a solution of sodium dithionite (11 mM in phosphate buffer pH=8) was degassed for a minimum of 5 min and 360 μL of this solution was transferred to the vial containing protein. The gas lines were disconnected from the vials. The substrate 4.1a or 4.1b was then added as a solution (20 μL, 200 mM). Final concentrations of all components were: 10 uM enzyme, 10 mM substrate, and 10 mM dithionite. […]
(§2) The mixture was extracted with 1 mL cyclohexane and analyzed by GC-MS or GC. GC-MS was performed on a Shimadzu TQ8030 GC-MS with ion count detector and J&W HP-5 column (30 m×0.32 mm, 0.25 μm film) using the following method: 90° C. (hold 2 min), 90-190° C. (20° C./min), and 190-230 (40° C./min)

A short description of experiment [2]: Intramolecular carbene C—H insertion, substrate 4.1b. In kind it is biochemical. As to conditions: 10 mM 4.1b, 10 uM P450, 10 mM Na2S2O4; product 4.2b. The method, then:
as §1
A representative procedure for P450-catalyzed C—H insertion is as follows: A vial containing WT-AxD (20 μL, 200 μM) was sealed with a teflon cap and the headspace of this vial was purged with argon for 5 min. Concurrently, a solution of sodium dithionite (11 mM in phosphate buffer pH=8) was degassed for a minimum of 5 min and 360 μL of this solution was transferred to the vial containing protein. The gas lines were disconnected from the vials. The substrate 4.1a or 4.1b was then added as a solution (20 μL, 200 mM). Final concentrations of all components were: 10 uM enzyme, 10 mM substrate, and 10 mM dithionite. The reaction vials were then placed in a tray on a plate shaker and left to shake at 40 rpm for 12 h then 20 μL phenethyl alcohol (20 mM) was added as an internal standard.
as §2

B1: WT-AxD: WT heme domain + C400D (protein)
chain: TIKEMPQPKTFGELKNLPLLNTDKPVQALMKIADELGEIFKFEAPGRVTRYLSSQRLIKEACDESRFDKNLSQALKFVRDFAGDGLFTSWTHEKNWKKAHNILLPSFSQQAMKGYHAMMVDIAVQLVQKWERLNADEHIEVPEDMTRLTLDTIGLCGFNYRFNSFYRDQPHPFITSMVRALDEAMNKLQRANPDDPAYDENKRQFQEDIKVMNDLVDKIIADRKASGEQSDDLLTHMLNGKDPETGEPLDDENIRYQIITFLIAGHETTSGLLSFALYFLVKNPHVLQKAAEEAARVLVDPVPSYKQVKQLKYVGMVLNEALRLWPTAPAFSLYAKEDTVLGGEYPLEKGDELMVLIPQLHRDKTIWGDDVEEFRPERFENPSAIPQHAFKPFGNGQRADIGQQFALHEATLVLGMMLKHFDFEDHTNYELDIKETLSLKPKGFVVKAKSKKIPLGGIPSPST
modifications: synthetic cytochrome P450-BM3 variant WT-AxD (heme)
notes: WT heme domain + C400D
As to B1, the Yield % in experiment [1] (10 mM 4.1a, 10 uM P450, 10 mM Na2S2O4, product 4.2a) was found to be 14%; in experiment [2] it was 4%. Moreover, the “lactone formation via C—H bond insertion” value in experiment [1] (substrates 4.1a and 4.1b, 10 μM variant or hemin at 5% catalyst loading, 16 h) is “lactone formation”.
